Data as given in patent publication US20180030144A1 (INNATE PHARMA, published 2018).

Assays:
Assay in all cases: flow cytometry, HEK293T transfectants
human CD73 mutant 16 = biological target: T1, human CD73 mutant 16 (human, UniProt P21589 27-549)
T1 construct: Transfected in HEK293T cells
T1 chain: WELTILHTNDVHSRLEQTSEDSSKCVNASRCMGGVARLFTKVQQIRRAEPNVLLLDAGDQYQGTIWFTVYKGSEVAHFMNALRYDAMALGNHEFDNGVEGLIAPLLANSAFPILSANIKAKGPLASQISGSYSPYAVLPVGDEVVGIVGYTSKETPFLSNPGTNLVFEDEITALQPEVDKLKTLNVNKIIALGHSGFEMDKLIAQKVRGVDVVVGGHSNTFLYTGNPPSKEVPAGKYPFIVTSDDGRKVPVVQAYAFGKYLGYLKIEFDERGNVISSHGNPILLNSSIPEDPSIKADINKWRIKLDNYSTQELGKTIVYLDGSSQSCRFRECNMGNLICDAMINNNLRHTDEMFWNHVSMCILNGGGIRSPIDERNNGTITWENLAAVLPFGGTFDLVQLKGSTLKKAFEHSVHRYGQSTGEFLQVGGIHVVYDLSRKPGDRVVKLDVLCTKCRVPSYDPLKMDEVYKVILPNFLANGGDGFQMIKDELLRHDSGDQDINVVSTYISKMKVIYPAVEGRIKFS

human CD73 mutant 17 = biological target: T2, human CD73 mutant 17 (human, UniProt P21589 27-549)
T2 construct: Transfected in HEK293T cells
T2 chain: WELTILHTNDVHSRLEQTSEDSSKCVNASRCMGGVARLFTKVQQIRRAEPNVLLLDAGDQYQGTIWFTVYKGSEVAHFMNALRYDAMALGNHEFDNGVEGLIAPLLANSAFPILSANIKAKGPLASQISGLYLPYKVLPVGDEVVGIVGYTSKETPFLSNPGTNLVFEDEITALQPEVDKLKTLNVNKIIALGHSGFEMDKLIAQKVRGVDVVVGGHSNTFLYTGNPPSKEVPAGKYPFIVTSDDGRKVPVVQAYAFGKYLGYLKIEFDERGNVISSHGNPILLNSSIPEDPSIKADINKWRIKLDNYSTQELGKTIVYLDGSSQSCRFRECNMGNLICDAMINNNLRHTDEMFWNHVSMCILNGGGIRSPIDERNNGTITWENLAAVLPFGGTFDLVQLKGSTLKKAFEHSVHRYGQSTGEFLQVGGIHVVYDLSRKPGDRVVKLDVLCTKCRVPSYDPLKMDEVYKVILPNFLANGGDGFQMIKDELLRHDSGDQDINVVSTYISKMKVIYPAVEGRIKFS

human CD73 mutant 19 = biological target: T3, human CD73 mutant 19 (human, UniProt P21589 27-549)
T3 construct: Transfected in HEK293T cells
T3 chain: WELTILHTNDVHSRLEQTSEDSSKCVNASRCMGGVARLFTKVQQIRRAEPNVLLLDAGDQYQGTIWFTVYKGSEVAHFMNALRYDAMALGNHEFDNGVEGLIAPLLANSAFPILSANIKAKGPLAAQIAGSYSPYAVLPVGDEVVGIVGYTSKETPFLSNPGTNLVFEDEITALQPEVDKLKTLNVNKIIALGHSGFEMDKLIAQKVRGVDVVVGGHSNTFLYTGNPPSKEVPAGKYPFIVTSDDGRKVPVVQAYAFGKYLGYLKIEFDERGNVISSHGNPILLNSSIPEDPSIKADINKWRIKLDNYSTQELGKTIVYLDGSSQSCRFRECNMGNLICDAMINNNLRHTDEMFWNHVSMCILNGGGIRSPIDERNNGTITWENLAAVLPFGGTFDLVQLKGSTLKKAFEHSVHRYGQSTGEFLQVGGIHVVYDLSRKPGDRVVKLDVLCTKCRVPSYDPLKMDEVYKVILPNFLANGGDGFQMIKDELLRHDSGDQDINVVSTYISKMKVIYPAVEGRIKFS

human CD73 mutant 21 = biological target: T4, human CD73 mutant 21 (human, UniProt P21589 27-549)
T4 construct: Transfected in HEK293T cells
T4 chain: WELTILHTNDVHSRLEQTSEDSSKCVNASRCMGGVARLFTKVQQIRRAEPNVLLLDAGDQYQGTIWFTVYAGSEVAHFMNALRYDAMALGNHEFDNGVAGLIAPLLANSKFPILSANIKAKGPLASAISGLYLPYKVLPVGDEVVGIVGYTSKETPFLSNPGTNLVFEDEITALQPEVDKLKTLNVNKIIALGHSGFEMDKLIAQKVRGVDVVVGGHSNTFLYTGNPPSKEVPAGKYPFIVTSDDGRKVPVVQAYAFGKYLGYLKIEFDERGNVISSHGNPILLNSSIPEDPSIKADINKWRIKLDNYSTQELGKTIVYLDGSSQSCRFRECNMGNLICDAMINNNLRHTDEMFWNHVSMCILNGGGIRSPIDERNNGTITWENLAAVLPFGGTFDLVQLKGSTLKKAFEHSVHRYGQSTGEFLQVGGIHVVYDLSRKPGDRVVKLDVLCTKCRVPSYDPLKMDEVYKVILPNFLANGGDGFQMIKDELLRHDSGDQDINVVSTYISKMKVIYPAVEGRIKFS

human CD73 mutant 22 = biological target: T5, human CD73 mutant 22 (human, UniProt P21589 27-549)
T5 construct: Transfected in HEK293T cells
T5 chain: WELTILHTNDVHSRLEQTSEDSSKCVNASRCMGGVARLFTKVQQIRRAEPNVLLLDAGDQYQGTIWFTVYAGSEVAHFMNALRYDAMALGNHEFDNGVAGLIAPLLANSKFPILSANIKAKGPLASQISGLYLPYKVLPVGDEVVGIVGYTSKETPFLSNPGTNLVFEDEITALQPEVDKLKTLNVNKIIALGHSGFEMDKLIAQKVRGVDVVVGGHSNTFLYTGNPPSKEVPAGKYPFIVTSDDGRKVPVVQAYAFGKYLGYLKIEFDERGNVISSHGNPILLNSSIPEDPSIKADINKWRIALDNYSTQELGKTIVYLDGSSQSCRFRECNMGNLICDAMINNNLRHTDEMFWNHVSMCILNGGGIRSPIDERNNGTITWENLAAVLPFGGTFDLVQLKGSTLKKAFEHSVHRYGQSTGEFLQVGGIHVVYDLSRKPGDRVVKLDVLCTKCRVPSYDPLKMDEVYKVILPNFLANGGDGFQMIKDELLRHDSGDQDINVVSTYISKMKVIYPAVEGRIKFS

Measured: binding result

B1: antibody 11E1 (antibody, human IgG1, V domains shown)
VH: EIQLQQSGPELVKPGASVKVSCKASGYAFTSYNMYWVKQSHGKSLEWIGYIDPYNGGTSYNQKFKGKATLTVDKSSSTAYMHLNSLTSEDSAVYYCARGYGNYKAWFAYWGQGTLVTVSA
VL: DAVMTQTPKFLLVSAGDRVTITCKASQSVTNDVAWYQQKPGQSPKLLIYYASNRYTGVPDRFTGSGYGTDFTFTISTVQAEDLAVYFCQQDYSSLTFGAGTKLELK
notes: Produced as chimeric human IgG1 with heavy chain N297Q (Kabat EU numbering); also called 1E11
no binding: all assays above

B2: antibody 6E1 (antibody, human IgG1, V domains shown)
VH: EFQLQQSGPELVKPGASVKVSCKASGYAFTSYNMYWVKQSHGKRLEWIGYIDPYNGGSSYNQKFKGKATLTVDKSSSTAYMHLNNLTSEDSAVYYCARGYNNYKAWFAYWGQGTLVTVSA
VL: SIVMTQTPKFLLVSAGDRVTITCKASQSVTNDVAWYQQKPGQSPKLLIYYASNRYTGVPDRFTGSGYGTDFTFTISTMQAEDLAVYFCQQDYSSLTFGAGTKLELK
notes: Produced as chimeric human IgG1 with heavy chain N297Q (Kabat EU numbering)
no binding: all assays above

B3: antibody 3C12 (antibody, human IgG1, V domains shown)
VH: QIQLQQSGPELVKPGASVKVSCKASGYAFASYNMNWVKQSHGKSLDWIGYIDPYNGGSSYNLTFKGKATLTVDKSSTTAYMHLNSLTSEDSAVYYCARGYGNYKAWFAYWGQGTLVTVSA
VL: DVVMTQTPKFLLVSAGDRVTITCKASQSVSNDVAWYQQKPGQSPKLLIYYASTRYTGVPDRFTGSGYGTDFTFTISTVQAEDLAVYFCQQDYSSLTFGAGTKLELKR
notes: Produced as chimeric human IgG1 with heavy chain N297Q (Kabat EU numbering); RTVAAP)
no binding: all assays above
